assay: yeast display, Sf9 membrane polyspecificity reagent, FACS + sequencing; frameworks hold sequencing errors
In short: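 Using colony PCR, genes from sorted yeast display clones were amplified, then sequenced on MiSeq at 2 × 250 and filtered by CDR length. The clones had been stained with 10% biotinylated, detergent-solubilized Sf9 membrane reagent for 1 hour at 4 °C and sorted by FACS into low and high (top ~1%) gates on anti-HA and streptavidin fluorescence. Polyreactivity labels come from the gate of origin.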

Row | Sequence | polyreactivity (PSR sort gate)
1 | QVQLVESGGGLVQAGGSLRLSCAASGYIIGGNAMGWYRQAPAKERELVAVISSRGGRTYYADSVKGRFTISRDNAKNTVSLQMNSQKPEDTAVYDCASIRYRGARGSGDKIFYYWGQGTQVTVSS | high polyreactivity
2 | QVQLVESGGGLVQAGGSLRLSCAASGYILWNAMGCYRQAPGKDRELVAAISSGGSTNYADSVKGRFTISRDNAKNTVYLQMNSLKPEDTAVYYCNTDRFWPSDYWGQGTQVTVSS | low polyreactivity
3 | QVQLVESGGGLVQAGGSLRLSCAASGYILYPYAMGWYRQAPGKERELVAAIRQRGGSTYYADSVKGRFTISRDNAKNTVYLQMNSLKPEDTAVYYCAAYLSPKRALTRGYGYWGQGTQVTVSS | high polyreactivity
4 | QVQLVESGGGLVQAGGSLRLSCAASGYIYIVYSMGWYRQAPVKERELVAAISSGGITDYADSVKGRFTISRDNAKNTVYLQMNSLKPEDTAVYYWGQGTQVTVSA | low polyreactivity
5 | QVQLVESGGGLVQAGGSLRLSCAASGYNFGVYAMGWYRQAPRKERELVARITSGGSTNYADSVKGRFTISRDNAKITVYLQMNSLKPEDTAVYYCAAAVGNTDREYDYWGQGTQVTVSS | low polyreactivity
6 | QVQLVESGGGLVQAGGSLRLSCAASGYNFVRNAMGWYRQAPGKERELVAAISGSGGSTYYADSVKGRFTISRDNAKNTVYLQMNSLKPEDTAVYYCAADYATVTWRGIAYDYWGQGTQVTVSS | low polyreactivity
7 | QVQLVESGGGLVQAGGSLRLSCAASGYSFYINVMGWYIQAPGKERELLAAISISGDSTYYSDSVKGRFTISRDNAKNTVYLQMNSLKPDDTALYYCAADTVSSWYYPLEDEYWGQGTQVTVSS | high polyreactivity
8 | QVQLVESGGGLVQAGGSLRLSCAASGYTFDAYAMGWYRQAHGKERELVAAINYSGGSTYADSVKGRFTISRDNAKNTVYLQMNSLKPEDTAVYYCATRLYGYWPNGFDYWGQGTQVTVSS | low polyreactivity
9 | QVQLVESGGGLVQAGGSLRLSCAASGYTFDTNALGWYRLAPGTEREFVAAISSTGGTYYADSVKGRFTISRDNAKNTVYLQMNSLKPEDTAVYYCAATFIQVVVIVQLYDYDYWRQGTQVTVSS | low polyreactivity
10 | QVQLVESGGGLVQAGGSLRLSCAASGYTFFYYAMGWSRQAPGKERELVAIDLNGGSTYYADSVKGRFTISRDNAKNTVYLQMNSLKPEDTAVSSCAATRPWYGDVGYLEDYWGQGTQVTVSS | low polyreactivity
11 | QVQLVESGGGLVQAGGSLRLSCAASGYTFGEYAMGWYRQAPGKERELVATISLSDGSTNYADSVKGRFTISRDNAKNTVYLQMNSLKPEDTAVYYCATETQQALYGSVLKYNYWGQGTQVTVSS | low polyreactivity
12 | QVQLVESGGGLVQAGGSLRLSCAASGYTFGGNAMGWYRQAPGKERELVAAISNTGGRTNYADSVKGRFTISRDNAKNTVYLQMNSLKPEDTAVSYCAKSVYYRDRYGGDYWGQGTQVTVSS | low polyreactivity
13 | QVQLVESGGGLVQAGGSLRLSCAASGYTFGINAMGWYRQAPGNERELVAAITTGGSTNYADSVKGRFTISRDNAKNTVYLQMNSLTPEDTAVYYCNASWDGWNANYWYPGAYYYWGQGTQVTVSS | low polyreactivity
14 | QVQLVESGGGLVQAGGSLRLSCAASGYTFGKYAMGWYRQAPGKEREWVAGISSRGGSTYYADSVKGRFTISRDNAKNTVYLQMNSLKPEDTAVYYCAAVAYTGGPRKLGFNYWGQGTQVTVSS | high polyreactivity
15 | QVQLVESGGGLVQAGGSLRLSCAASGYTFGPYAMGWYRQAPGKERELVAAITTRGGSTYYADSVKGRFTISRYNAKNTVYLQMNSLKPEDTAVYYCAAESIRSDDYWGQGTQVTVSS | high polyreactivity
16 | QVQLVESGGGLVQAGGSLRLSCAASGYTFGYNAMGWYRQAPGKERELVATISSGGTTTYADSVKGRFTISRDNAKNTVYLQMNSLKPEDTAVYYCNVYDYPTYDYWGQGTQVTVSS | low polyreactivity
17 | QVQLVESGGGLVQAGGSLRLSCAASGYTFGYYAMGWYRQAPGKERELVAAINWSGGSTYYADSVKGRFTISRDNAKNTVYLQMNSLKPEDTAVYYCNRRTGSYGRTPVWKGEYYYWGQGTQVTVSS | high polyreactivity
18 | QVQLVESGGGLVQAGGSLRLSCAASGYTFGYYAMGWYRQAPGKERELVAAISWRGARTNYADSVKGRFTISRDNAKNTVYLQMNSLKPEDTAVYYCAAGYYYGYPPRDYWGQGTQVTVSS | high polyreactivity
19 | QVQLVESGGGLVQAGGSLRLSCAASGYTFHGYAMGWYRQAPGKERELVAVITQRGGSTSYADSVKGRFTISRDNAKNTVYLQMNSLKPEDTAVYYCNADGPSTPWVDYGYWGQGTQVTVSS | low polyreactivity
20 | QVQLVESGGGLVQAGGSLRLSCAASGYTFKRYAMGWYRQAPGKESDLVASITRRGGSTYYADSVKGRFTISRDNAKNTVNLQMNSLKPEDTAVYDCAKSIPLGYTIYDYWGQGTQVTVSS | high polyreactivity
21 | QVQLVESGGGLVQAGGSLRLSCAASGYTFKVYAMGWYRQAPGKERELVAAIRSSGGSTYADSVKGRFTISRDNAKNTVYLQMNSLKPEDTAVYYCAKAGYVSGLYSATRYEYWGQGTQVTVSS | low polyreactivity
22 | QVQLVESGGGLVQAGGSLRLSCAASGYTFLYYAMGWYRQAPGKEREFVAAISRSGGSTYYADSVKGRFTISRDNAKNTVYLQMNSLKPEDTAVYFCAARFRYQHQRGDYWGQGTQVTVSS | high polyreactivity

Row | Sequence | polyreactivity (PSR sort gate)
23 | QVQLVESGGGLVQAGGSLRLSCAASGYTFNFNAMGWYRQAPGKERELVAAITWNGGRTYYADSVKGRFTISRDNAKNTVYLQMNSLKPEDTAVYYCAARSYQRPSDTRYDYWGQGTQVTVSS | high polyreactivity
24 | QVQLVESGGGLVQAGGSLRLSCAASGYTFNYYAMGWYRQAPGKERELVAAIRSTGSTNYADSVKGRFTISRDNAKNTVYLQMKSLKPEDTAVYYCAAKIRKDYSIQGYDYWGQGSQVTVSS | high polyreactivity
25 | QVQLVESGGGLVQAGGSLRLSCAASGYTFPLYAMGWSRQAPGKEREFVAAISKRSGTTYYADSVKGRFTISRDNAKNTVYLQMNSLKPEDTAVYYCAASNGYQAVTYDYWGQGTQVTVSS | high polyreactivity
26 | QVQLVESGGGLVQAGGSLRLSCAASGYTFPLYAMGWYRQAPGQERELVADINIGGASTYYADSVKGRFTISRDNAKNTVYLQMNSLKPEDTAVYYSAKEYYDGYFPTFDYDYWGQGTQVTVSS | low polyreactivity
27 | QVQLVESGGGLVQAGGSLRLSCAASGYTFPMYAMGWYRQAPGKERELVADINIGGASTYYADSVKGRFTISRDNAKNTVYLQMNSLKPEDSAVYYCAKEYYDGYFPTFDYDYWGQGTQVTVSS | low polyreactivity
28 | QVQLVESGGGLVQAGGSLRLSCAASGYTFPYAMGWYRQAPGKERELVAAISSRGSSTYYADSVKGRFTISRDNAKNTVYLQINSLKPEDTAVYYCAAKHFVKVDYWGQGTQVTVSS | high polyreactivity
29 | QVQLVESGGGLVQAGGSLRLSCAASGYTFQHYAMGWYRQAPGKERELVAAITRRGSGTYYADSVKGRFTSSRDNAKNTVYLQMNSLKPEDTAVYYCAAAVGHGVDYWGQGTQVTVSS | high polyreactivity
30 | QVQLVESGGGLVQAGGSLRLSCAASGYTFRAYAMGWYRQAPGKEREFVAAISRSGGSTYYADSVKGRFTISRDNAKNTVYLQMNSLKPEDTAVYYCARRYARITPVYPPLNYWGQGSQVTVSS | high polyreactivity
31 | QVQLVESGGGLVQAGGSLRLSCAASGYTFRGNAMGWYRQAPGKERELVAAISIGGTTYYADSVKGRFTISRDNAKNTVYLQMNSLKPVDTAVYYCARRGLAFLFDYWGQGTQVTVSS | low polyreactivity
32 | QVQLVESGGGLVQAGGSLRLSCAASGYTFRKYAMGWYRQAPGKERELVAAITYTGGSTYYADSVKGRFTISRDNAKNTVYLQMNSLKPEDTAVYYCARRYRWGEYGYWGQGTQVTVSS | high polyreactivity
33 | QVQLVESGGGLVQAGGSLRLSCAASGYTFRYYAMGWYRQAPGKEREFVAAITWSDSGTYYADSVKGRFTISRDNAKNTVYLQMNSLKPEDTAVYYCAAERYLSFDRYLYEYYYWGQGTQVTVSS | low polyreactivity
34 | QVQLVESGGGLVQAGGSLRLSCAASGYTFRYYGMGWYRQAPGNERELVADINSNGVRTYYADSVKGRFTISRDNAKNTVYVQMNSLKPEDTAVYYCNKDWGRYRYDYWGQGTQVTVSS | high polyreactivity
35 | QVQLVESGGGLVQAGGSLRLSCAASGYTFSDNAMGWSRQAPGKERDLVAAITSGVSKYFADSVKGRFTISRDNAKNTVYLQMNSLKPEDTADYYFAKDVAVYADLYQGAPYGYWGQGTQVTVSS | low polyreactivity
36 | QVQLVESGGGLVQAGGSLRLSCAASGYTFSDNAMGWYRPAPGKERELVAAITSGVSTYYADSVKGRFRISRDNAKNSVYLQMNSLNPEDTAVYYCAAEPDTYWYTYDYWGQGTQVTVSS | low polyreactivity
37 | QVQLVESGGGLVQAGGSLRLSCAASGYTFSDNAMGWYRQAPGKEWELVAAISTGGSTNYADSVKGRFTISRDNAKNTVYLQMNSLKPEDTAVYYCATDAWSFGYNYVPLHYDYWGQGTQVTVSS | low polyreactivity
38 | QVQLVESGGGLVQAGGSLRLSCAASGYTFSFYAMGWYRQAPGKERELVAAISSSDGTTYYADSEKGRFTISRDNAKNTVYLQMNSLKPEDTAVYYCNTRYVRQVVGTYTLKTRYYWGQGTQVTVSS | high polyreactivity
39 | QVQLVESGGGLVQAGGSLRLSCAASGYTFSFYAMGWYRQATGKERELVADISRSGGSTYYADSVKGRFTISRDNAKNTVYLQMNSQKPEDTAVYYCAARWPGAYHEYGYLGQGTQVTVSS | high polyreactivity
40 | QVQLVESGGGLVQAGGSLRLSCAASGYTFSYANAMGWYRQAPGKERELVASISSTGGRTYYADSVKGRFTISRDNAKNTVYLQMNSLKPEDTAVYYCASRYWRYGYWGQGTQVTVSS | high polyreactivity
41 | QVQLVESGGGLVQAGGSLRLSCAASGYTFSYNAMGWYRQAPGKERELVARITRGTSTYADSVKGRFTISRDNAKNTVYLQMNSLKPEDTAVYYCAARPGSGRSYTSDYWGQGSQVTVSS | high polyreactivity
42 | QVQLVESGGGLVQAGGSLRLSCAASGYTFSYNTMGWYRQAPGKERELVAAIRLSGGSTYYADSVKGRFTSSRDNAKNTVYLQMNSLKPEDTAVYYCAARQIITKFYTSNGVSYYYWGQGTQETVSS | high polyreactivity
43 | QVQLVESGGGLVQAGGSLRLSCAASGYTFTGYAMGWYRQAPGKERELVAAITSIGGSTYYADSVKGRFTISRDNAKNTVYLQMNSLKPEDTAVYYCAAEGDYVYDMDYWGQGTQVTVSS | low polyreactivity
